Reference: patent US8202696 (MAX PLANCK GESELLSCHAFT ZUR FORDERUNG DER WISSENSCHAFTEN E V, dated 2012)

B1: α4 protein, full-length, in the yeast two-hybrid system (other, human, UniProt P78318 2-339, looked up)
chain: AAEDELQLPRLPELFETGRQLLDEVEVATEPAGSRIVQEKVFKGLDLLEKAAEMLSQLDLFSRNEDLEEIASTDLKYLLVPAFQGALTMKQVNPSKRLDHLQRAREHFINYLTQCHCYHVAEFELPKTMNNSAENHTANSSMAYPSLVAMASQRQAKIQRYKQKKELEHRLSAMKSAVESGQADDERVREYYLLHLQRWIDISLEEIESIDQEIKILRERDSSREASTSNSSRQERPPVKPFILTRNMAQAKVFGAGYPSLPTMTVSDWYEQHRKYGALPDQGIAKAAPEEFRKAAQQQEEQEEKEEEDDEQTLHRAREWDDWKDTHPRGYGNRQNMG
notes: mature; also called alpha4; IGBP1 gene product; not shown: two-hybrid fusion partner
B2: MID1 B-box 1 (residues 110-165), yeast two-hybrid bait (other)
chain: TMTSAEKVLCQFCDQDPAQDAVKTCVTCEVSYCDECLKATHPNKKPFTGHRLIEPI
notes: also called BB1; isolated B-Box1; not shown: two-hybrid fusion partner; not described

How the values were obtained:
HHARI = molecular target: T1, HHARI (UniProt Q9Y4X5 1-557, limits assumed); assay: yeast two-hybrid, growth on his- leu- trp- plate
T1 construct: Two-hybrid fusion protein; fusion partner not described

PARKIN = molecular target: T2, PARKIN (UniProt O60260 1-465, limits assumed); assay: yeast two-hybrid, growth on his- leu- trp- plate
T2 construct: Two-hybrid fusion protein; fusion partner not described

[1] = molecular target: B1; assay: yeast two-hybrid, comparison of the α4-affinities of MID1 peptides
[2] = molecular target: T3, endogenous α4 of the transfected human cell lines (HeLa, U373MG) (UniProt P78318 2-339); assay: cell-based or functional assay
T3 sequence (looked up): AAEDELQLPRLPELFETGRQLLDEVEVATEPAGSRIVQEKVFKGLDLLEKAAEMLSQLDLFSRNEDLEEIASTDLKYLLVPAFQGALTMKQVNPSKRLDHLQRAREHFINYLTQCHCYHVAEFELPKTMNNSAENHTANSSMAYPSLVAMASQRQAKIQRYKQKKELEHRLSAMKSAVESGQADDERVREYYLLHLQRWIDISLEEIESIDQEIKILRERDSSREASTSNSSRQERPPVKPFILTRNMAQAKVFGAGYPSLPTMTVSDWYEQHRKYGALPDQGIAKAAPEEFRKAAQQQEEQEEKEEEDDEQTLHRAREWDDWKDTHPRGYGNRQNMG

[3] = molecular target: B2; assay: yeast two-hybrid, deletion studies with α4 (preliminary data)

T2 sequence (O60260 whole entry, the tested form may be a part): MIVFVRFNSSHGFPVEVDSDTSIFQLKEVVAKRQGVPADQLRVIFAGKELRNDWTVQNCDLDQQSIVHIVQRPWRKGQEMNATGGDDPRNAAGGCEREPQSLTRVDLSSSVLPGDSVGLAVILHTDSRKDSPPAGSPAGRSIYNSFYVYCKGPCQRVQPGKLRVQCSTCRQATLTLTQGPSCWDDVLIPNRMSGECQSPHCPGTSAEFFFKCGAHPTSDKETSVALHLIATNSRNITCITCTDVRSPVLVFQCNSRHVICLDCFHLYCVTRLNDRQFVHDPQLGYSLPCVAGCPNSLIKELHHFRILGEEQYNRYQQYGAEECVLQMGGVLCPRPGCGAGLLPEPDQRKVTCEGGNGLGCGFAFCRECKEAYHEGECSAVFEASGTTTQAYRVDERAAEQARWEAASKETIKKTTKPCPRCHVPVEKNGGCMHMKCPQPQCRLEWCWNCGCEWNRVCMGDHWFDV
T1 sequence (Q9Y4X5 whole entry, the tested form may be a part): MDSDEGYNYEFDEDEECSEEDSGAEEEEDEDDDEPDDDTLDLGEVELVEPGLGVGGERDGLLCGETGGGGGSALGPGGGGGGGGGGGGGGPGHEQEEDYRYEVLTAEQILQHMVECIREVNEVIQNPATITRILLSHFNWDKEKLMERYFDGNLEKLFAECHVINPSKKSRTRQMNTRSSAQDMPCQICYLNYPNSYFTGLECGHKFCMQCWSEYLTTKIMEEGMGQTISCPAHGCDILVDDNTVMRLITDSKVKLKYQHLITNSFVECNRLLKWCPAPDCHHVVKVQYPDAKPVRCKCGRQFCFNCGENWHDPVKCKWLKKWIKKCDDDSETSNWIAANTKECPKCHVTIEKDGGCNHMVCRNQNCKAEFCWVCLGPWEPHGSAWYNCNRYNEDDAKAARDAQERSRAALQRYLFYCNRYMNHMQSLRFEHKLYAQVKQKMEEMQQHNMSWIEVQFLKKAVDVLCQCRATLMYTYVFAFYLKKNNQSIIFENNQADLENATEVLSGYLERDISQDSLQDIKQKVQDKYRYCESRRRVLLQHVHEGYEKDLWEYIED

B1: no binding (HHARI); no binding (PARKIN).

For B2, the “fold increase of affinity for α4 compared to the full length MID1 protein” value [1] was 10 fold.

B3: myc-tagged B-box 1 of the MID1 protein (peptide, not shown: small tags and cut ends)
peptide: TMTSAEKVLCQFCDQDPAQDAVKTCVTCEVSYCDECLKATHPNKKPFTGHRLIEPIPD
B3 was tested, and the “ratio between phosphorylated and dephosphorylated hFused-form (western blot)” value [2] was 3 ratio and the “ratio between phosphorylated and dephosphorylated hFused-form (western blot, repeat)” value [2] was 3 ratio.

B4: small part of α4 (44 amino acids), yeast two-hybrid deletion construct (peptide)
peptide: ERPPVKPFILTRNMAQAKVFGAGYPSLPTMTVSDWYEQHRKYGA
notes: The range 236-279 is inferred from the equal length of 44 residues; also called peptidic fragment of α4
For B4, the “strength of interaction relative to full-length α4” value [3] was > 10 times.
